The source of these data is article PMC6139572, “Structural and functional effects of myosin-binding protein-C phosphorylation in heart muscle are not mimicked by serine-to-aspartate substitutions” (The Journal of Biological Chemistry, 2018).

Holding throughout (conditions): both partners purified
Experiment [1] concerns the target T1, myosin S2Δ, the first 126 amino acids of myosin sub-fragment 2 (rat heart) (rat, Alexa 647 (labelled with Alexa 647–NHS, efficiency of ~80%)).
T1 construct: cardiac myosin heavy chain cloned from a rat heart cDNA library; the first 126 amino acids of myosin S2; also called Alexa 647–myosin S2Δ; source: E. coli BL21(DE3)-RIPL, purified (HisTrapFF, TEV, Mono Q); not shown: His6, N-terminal, cleaved
Description: MST; isolated m-motif titrated against 100 nmol/liter Alexa 647–myosin S2Δ; MST buffer adjusted to pH 6.2, enhanced gradient standard capillaries; 50 mmol/liter KCl; 30 °C.

In experiment [2] the target is T1, myosin S2Δ, the first 126 amino acids …. Description: MST; as a2 (pH 7, 50 mmol/liter KCl); 30 °C.
The target in experiment [3] is isolated native thin filaments (UniProt P68032 1-377). Nature of the experiment: co-sedimentation; high-velocity co-sedimentation of C1mC2 constructs with isolated native thin filaments; performed as described in ref. 15.

B1: isolated m-motif of rat cardiac myosin-binding protein-C (domain or fragment)
chain: VHEAIGSGDLDLRSAFRRTSLAGTGRRTSDSHEDAGTLDFSSLLKKSSFRRDSKLEAPAEEDVWEILRQAPPSEYERIAFQHGVTDLRGMLKRLKGMKHDE
In general, Kd refers to the equilibrium constant for the complex coming apart. For B1, the Kd in experiment [1] amounted to 41.1 µM.

B2: C1–C2, construct containing Ig domains C1 and C2 of rat cardiac myosin-binding protein-C connected by a flexible linker, with the m-motif deleted (domain or fragment)
chain: PIGLFLMRPQDGEVTVGGSIVFSARVAGASLLKPPVVKWFKGKWVDLSSKVGQHLQLHDSYDRASKVYLFELHITDAQATSAGGYRCEVSTKDKFDSCNFNLTKKSTAFQKKLEPAYQVNKGHKIRLTVELADPDAEVKWLKNGQEIQMSGRYIFESIGAKRTLTISQCSLADDAAYQCVVGGEKCSTELFVKEP
Turning to B2, in experiment [2], the Kd was determined as 477 µM.

B3: C1mC2 of rat cardiac myosin-binding protein-C with three phosphorylatable serines mutated to aspartate (domain or fragment)
chain: PIGLFLMRPQDGEVTVGGSIVFSARVAGASLLKPPVVKWFKGKWVDLSSKVGQHLQLHDSYDRASKVYLFELHITDAQATSAGGYRCEVSTKDKFDSCNFNLTVHEAIGSGDLDLRSAFRRTDLAGTGRRTDDSHEDAGTLDFSSLLKKSDFRRDSKLEAPAEEDVWEILRQAPPSEYERIAFQHGVTDLRGMLKRLKGMKHDEKKSTAFQKKLEPAYQVNKGHKIRLTVELADPDAEVKWLKNGQEIQMSGRYIFESIGAKRTLTISQCSLADDAAYQCVVGGEKCSTELFVKEP
In experiment [3], B3 came in with a Kd of 16 µM.
